Source: patent publication US6355256B1, “Compositions containing a p53 derived protein or peptide, an adjuvant, and interleukin-12 and uses thereof” (Ludwig Institute for Cancer Research, priority 1994, dated 2002)
Entries after “also recorded” stand apart in the source; their conditions may differ. No end group written: not given here.

Key:
[1] = test system: P1-HTR cells pulsed with peptide; assay: Generation of peptide-specific CTLs after immunization with peptide, adjuvant and IL-12 (51Cr release assay); format: cell-based, BALB/C mice
Meth A sarcoma [2] = assay: Suppression of growth of established Meth A tumors by peptide in adjuvant plus low dose IL-12; format: in vivo, BALB/C mice; conditions: for suppression of tumor growth: peptide in QS-21 or QS-21 alone at days 7 and 14 after Meth A challenge, IL-12 1 ng, 4 times a week for two weeks from day 7
Description: As with the prior experiments, female BALB/C mice were injected with 5×10^4 Meth A cells at day 0. The mice received two injections of the mutant peptide in QS-21, the wild type peptide in QS-21, or QS-21 alone in the same manner described in Example 3, at weekly intervals. At day 7, the mice began receiving injections of 1 ng of IL-12 (4 times a week, for two weeks).
FIG. 4A resulted from QS-21 plus the mutant peptide followed by injections of IL-12. FIG. 4B resulted from QS-21 plus peptide, followed by injections with IL-12. FIG. 4C resulted from QS-21 alone followed by injections of IL-12.

Meth A sarcoma [3] = assay: Anti-tumor effect of IL-12 on established Meth A sarcoma in mice (tumor diameter); format: in vivo, BALB/C mice
Description: The in vivo model employed used the transplantable, methylcholanthrene-induced sarcoma “Meth A.” This is a sarcoma of BALB/C (murine) origin, passaged as an ascitic tumor. See Old, et al, Ann. N.Y. Acad. Sci 101:80-106 (1962), incorporated by reference in its entirety.
BALB/C female mice were injected intradermally with 5×10^4 Meth A cells on day 0. Seven days later, a treatment regime began, wherein the animals received doses of IL-12, 4 times a week. Control animals received no IL-12. The remaining animals received 1 ng, 10 ng, 100 ng, or 500 ng of IL-12 in each dose, administered by intraperitoneal injection.
The effect of the IL-12 on the induced tumors was observed by measuring the diameter of the tumors at the end of the treatment period. FIGS. 1A, 1B, 1C, 1D and 1E show this. The panels show results with doses of 0 ng, 1 ng, 10 ng, 100 ng, and 500 ng, respectively.
The effect of the IL-12 was abolished by administering monoclonal antibodies against CD8 molecules, but was not affected via administration of anti-CD4 mAbs.

Meth A sarcoma [4] = assay: Timing of IL-12 administration relative to Meth A challenge; format: in vivo, BALB/C mice; conditions: 100 ng IL-12 at day -14, day 0 or day 7 relative to Meth A challenge
Description: The importance of timing in the administration of IL-12 was then studied. In these experiments, female BALB/C mice were again injected with 5×10^4 Meth A cells, as in Example 1 (day 0). Injections of 100 ng IL-12 were administered at day “−14” (i.e., 14 days before challenge with the tumor cells), day 0, or day 7 (i.e., 7 days after challenge) as in Example 1.

## KYMCNSSCM (cysteine pairing not given here) [wild type peptide, wild type counterpart of peptide 234 CM]
[1]; 100 μg peptide twice at weekly intervals, regardless of the adjuvant (QS-21 or IFA) or treatment with IL-12
  CTLs elicited following immunization: No CTLs were elicited
Meth A sarcoma [2]
  suppression of tumor growth: did not lead to suppression of tumor growth

B1: IL-12: the cytokine interleukin-12 (protein, UniProt P29459 23-219; P29460 23-328, looked up)
Interleukin-12 subunit alpha: RNLPVATPDPGMFPCLHHSQNLLRAVSNMLQKARQTLEFYPCTSEEIDHEDITKDKTSTVEACLPLELTKNESCLNSRETSFITNGSCLASRKTSFMMALCLSSIYEDLKMYQVEFKTMNAKLLMDPKRQIFLDQNMLAVIDELMQALNFNSETVPQKSSLEEPDFYKTKIKLCILLHAFRIRAVTIDRVMSYLNAS
Interleukin-12 subunit beta: IWELKKDVYVVELDWYPDAPGEMVVLTCDTPEEDGITWTLDQSSEVLGSGKTLTIQVKEFGDAGQYTCHKGGEVLSHSLLLLHKKEDGIWSTDILKDQKEPKNKTFLRCEAKNYSGRFTCWWLTTISTDLTFSVKSSRGSSDPQGVTCGAATLSAERVRGDNKEYEYSVECQEDSACPAAEESLPIEVMVDAVHKLKYENYTSSFFIRDIIKPDPPKNLQLKPLKNSRQVEVSWEYPDTWSTPHSYFSLTFCVQVQGKSKREKKDRVFTDKTSATVICRKNASISVRAQDRYYSSSWSEWASVPCS
Meth A sarcoma [3]; IL-12 1, 10, 100 or 500 ng i.p., 4 times a week from day 7 after 5×10^4 Meth A cells intradermally
  anti-tumor effect (diameter of the tumors at the end of the treatment period): dose dependent anti-tumor effect
Meth A sarcoma [3]; with anti-CD4 mAbs
  effect of the IL-12 on tumors when anti-CD4 mAbs are administered: not affected
Meth A sarcoma [3]; with anti-CD8 mAbs
  effect of the IL-12 on tumors when monoclonal antibodies against CD8 are administered: abolished
Meth A sarcoma [4]
  effectiveness by timing of administration: most effective after the tumor had become established; also recorded: particularly effective after tumors have already formed
[1]; IL-12 0.1, 1, 10 or 100 ng, four times over two weeks, with peptide in QS-21 or IFA
  optimal dose of IL-12 for the generation of CTLs: 1 ng
[1]; IL-12 doses above 1 ng, with peptide in QS-21 or IFA
  effect of higher doses of IL-12 on generation of CTLs: suppressive effect
Meth A sarcoma [2]; each component alone, summary of the examples
  stimulation of an immune response when used alone: none
Meth A sarcoma [2]
  suppression of tumor growth: strong suppression of tumor growth; also recorded: growth suppressive effect
